Assay results reported in the nanobody polyreactivity screen of Harvey et al. (2022).

Assay: yeast display, Sf9 membrane polyspecificity reagent, FACS + sequencing; frameworks hold sequencing errors
Method in brief: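 Nanobodies came from a synthetic yeast display library in Saccharomyces cerevisiae BJ5465, induced with galactose for 36–48 hours and stained for 1 hour at 4 °C with 10% biotinylated, detergent-solubilized Sf9 membrane reagent. Cells were enriched on streptavidin microbeads and then FACS-sorted, with low and high (top ~1%) gates set on anti-HA fluorescence for expression and streptavidin fluorescence for reagent binding. Each polyreactivity label reflects the gate a clone came from. Genes were amplified by colony PCR, sequenced by MiSeq 2 × 250 and filtered by CDR length.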

Sequence: QVQLVESGGGLVQAGGSLRLSCAASGRIFALYAMGWYRQAPGKERELVASITGGTSTNYADSVKGRFTISRDNAKNTVYLQMNSLKPEDTEVYYCAARGYTTGTRNRRYNYWGQGTQVTVSS
- polyreactivity (PSR sort gate): high polyreactivity

Sequence: QVQLVESGGGLVQAGGSLRLSCAASGRIFANNAMGWYRQAPGKERELVAAISWRSGGTYYADSVKGRFTISRDNAKNTVYLQMNSLKPEDTAVYYCARRSPHHGRDYWGQGTQVTVSS
- polyreactivity (PSR sort gate): low polyreactivity

Sequence: QVQLVESGGGLVQAGGSLRLSCAASGRIFAPYAMGWYRQAPGKERELVAAIRISGDSTYYADSVKGRFTISRDNAKNTVYLQMNSLKPEDTAVYYCAAEYYILHWFGYAGYPAYNYWGQGTQVTVSS
- polyreactivity (PSR sort gate): high polyreactivity

Sequence: QVQLVESGGGLVQAGGSLRLSCAASGRIFAPYAMGWYTQAPGKERELVAAISFSGGSTHYADSVKGRFTISRDNAKNTVYLQMNSLKPEDTAVYYCAAGWRSRLYRFGYWGQGTQVTVSS
- polyreactivity (PSR sort gate): high polyreactivity

Sequence: QVQLVESGGGLVQAGGSLRLSCAASGRIFAQYAMGWYRQAPGKERELVADISSGVRTNADSVKGRFTISRDNAKNSVYLQMNSLKPEDTAVSYCNAYYIIFTRNDYWGQGTQVTVSS
- polyreactivity (PSR sort gate): low polyreactivity

Sequence: QVQLVESGGGLVQAGGSLRLSCAASGRIFARKAMGRYRQAPGKEREWVATIRVGGGSTYYADSVKGRFTISRDNAKNTVYLQMNSLKPEDTAVYYFAVRQLYSYPGDRRGYDWGQGTQVTVSS
- polyreactivity (PSR sort gate): low polyreactivity

Sequence: QVQLVESGGGLVQAGGSLRLSCAASGRIFARNAMGWYRQAPGKERELVADITSTGSTNYADSVKGRFTISRDNAMNTVYLQMNSLKPEDTAVYYCAADYYTGYVWEDYYWGQGTQVTVSS
- polyreactivity (PSR sort gate): low polyreactivity

Sequence: QVQLVESGGGLVQAGGSLRLSCAASGRIFARNAMGWYRQAPGKESELVAAITSSGSTYYADSVKGRFTISRDNAKNSVYLQMNSLKPEDTAVYYCAADGHAYRSNFWGQGTQVTVSS
- polyreactivity (PSR sort gate): low polyreactivity

Sequence: QVQLVESGGGLVQAGGSLRLSCAASGRIFARNTMGWYRQAPGKERELVAAISWGGGRTYYADSVKGRFTISRDNAKNTVYLQMNSLKPEDTAVYYCAAETLQIPRGEYWGQGTQVNVSS
- polyreactivity (PSR sort gate): low polyreactivity

Sequence: QVQLVESGGGLVQAGGSLRLSCAASGRIFARNTMGWYRQAPGKERELVAAISWGGGRTYYADSVKGRFTISRDNAKNTVYLQMNSLKPEDTAVYYCAAETLQIPRGEYWGQGTQVTVSS
- polyreactivity (PSR sort gate): low polyreactivity

Sequence: QVQLVESGGGLVQAGGSLRLSCAASGRIFARYAMGWYRQAPGKERELVAAIRTSGGITYYADSVKWRFTISRDNAKNTVYLQMNSLKPEDTEVYYCAADFYSYSSVKYDYWGQGTQVTVSS
- polyreactivity (PSR sort gate): low polyreactivity

Sequence: QVQLVESGGGLVQAGGSLRLSCAASGRIFARYAMGWYRQAPGKERELVAAISRGGSTKYADSVKGRFTISRDNAKNTVYLQMNSLKPEDTAVYYCAGQLWGSPYGAYYAGDYWGQGTQVTVSS
- polyreactivity (PSR sort gate): low polyreactivity

Sequence: QVQLVESGGGLVQAGGSLRLSCAASGRIFARYAMGWYRQAPGKERELVAAITGGGRTNYADSVKGRFTISRDNAKNTVYLQMNSLKPEDTAVYYCAADTGYQNGKGLGYQNFGGYYWGQGTQVTVSS
- polyreactivity (PSR sort gate): high polyreactivity

Sequence: QVQLVESGGGLVQAGGSLRLSCAASGRIFARYTMGWYRQAPGKEREFVAGIRSSGGRTYYADSVKGRFTISRDNAKNTVYLQMNSLKPEDTALYYCNAGGSWYFARYDYWGQGTQVTVSS
- polyreactivity (PSR sort gate): low polyreactivity

Sequence: QVQLVESGGGLVQAGGSLRLSCAASGRIFATNAMGWYRQAPGKEMELVATITRSAGRTYYADSVKGRFTISRDNAKNTVYLQMNSLKPEDTAVYYCAASYWDTEPGYREYDYWGQGTQVTVSS
- polyreactivity (PSR sort gate): low polyreactivity

Sequence: QVQLVESGGGLVQAGGSLRLSCAASGRIFATNAMGWYRQAPGKERELVAIITRSAGRTYYADSVKGRFTISRDKAKNTVYLQMNSLKPEDTAVYYCNTVPRPFDRYGYWGQGTQVTVSS
- polyreactivity (PSR sort gate): low polyreactivity

Sequence: QVQLVESGGGLVQAGGSLRLSCAASGRIFATYAMGWYRQAPGKERELVAAISDSGGRTYYADSVKGRFTISRDNAKNTVYLQMNSLKPADTALYYCAAKNGDRYARGYWGQATQVTVSS
- polyreactivity (PSR sort gate): high polyreactivity

Sequence: QVQLVESGGGLVQAGGSLRLSCAASGRIFAVNAMGWYRQAPGKERELVAAINGGGSTNYADSVKGRFTISRDNAKNTVYFQMNSLKPEDTAVYYCAADVGWRSQTRGYYWGQGTQVTVSS
- polyreactivity (PSR sort gate): high polyreactivity

Sequence: QVQLVESGGGLVQAGGSLRLSCAASGRIFAWYVMGWYRQAPRKEREFVAAIRWRSGSTHYADSVKGRFTISRDNAKNTVYLQMNSLKPEDTAVYYCAVDSRTYNGDYWGQGTQVTVSS
- polyreactivity (PSR sort gate): high polyreactivity

Sequence: QVQLVESGGGLVQAGGSLRLSCAASGRIFAYNTMGWYRQAPGKERELVAGITSGGSTNYADSVKGRFTISRDNAKNTVYLQMNSLQPEDTAVYYCAAVGRWGVTGSHHDAYDYWGQGTQVTVSS
- polyreactivity (PSR sort gate): high polyreactivity

Sequence: QVQLVESGGGLVQAGGSLRLSCAASGRIFAYYAKGWYRQAPGKERELVAAISRSGVSTYYADSVKGRFTISRDNAKNTVYLQMNSLKPEDTAVYYCAARWRSGFTSGDYWGQGTQVTVSS
- polyreactivity (PSR sort gate): low polyreactivity
